Data set [1] concerns the target T1, phAimR dimer (D174C-labelled) (Bacillus phage phi3T, UniProt P0DOE3, C136S/C223S/C267S/C6S/C74S/C99S/D174C).
T1 construct: 6xHis (N, cleaved yes); made in house; host or cells: Escherichia coli BL21 (DE3)
The data set is described as follows: smFRET titration of phAimR dimer labelled at D174C (Alexa488/Cy5). The note with it: titration of SAIRGA or target DNA, GMPRGA at 500 nM. The class given is binding. The procedure: (§1) The cysteine substitutions of phAimR (phAimR^C6S/C74S/C99S/C136S/C223S/C267S/N103C or phAimR^C6S/C74S/ C99S/C136S/C223S/C267S/D174C) were generated with a standard PCR-based strategy. Proteins were prepared in the same way as the wild-type phAimR. Alexa Fluor 488 C5 maleimide (Alexa488, A10254, Thermo Fisher, Shanghai, China) and Cy5 maleimide (Cy5, PA15131, GE Healthcare, Shanghai, China) were used as fluorescence donor and acceptor, respectively. A desalting column (HiPrep 26/10, GE Healthcare, Shanghai, China) was used to exchange the protein buffer into the conjugation buffer containing 20 mM phosphate (pH 7.4) and 100 mM NaCl. The protein fraction was collected in premixed Alexa488 and Cy5 dyes. The conjugation of phAimR was performed with Alexa488 and Cy5 at a molar ratio of 1:4:4. Conjugation reaction was performed for 3 h at room temperature in the dark, and the mixture was then purified using a Source-Q column (GE Healthcare, Shanghai, China). The fractions of double-labeled protein that had absorption at 280 nm, 493 nm and 640 nm were collected for smFRET data collection.
(§2) The laser confocal fluorescence microscope MicroTime 200 (PicoQuant, Berlin, Germany) was used for single-molecule imaging, and a pulsed interleaved excitation (PIE) scheme was used with two SPCM-AQRH detectors (Excelitas, Waltham, MA, USA) for recording fluorescence time traces at two different wavelengths. Two picosecond-pulsed diode laser heads (LDH-P-C-485 and LDH-P-C-640; PicoQuant, Berlin, Germany) were driven by a PDL 828 Sepia II driver (PicoQuant) at a repetition rate of 40 MHz, which allowed interleaved excitations for Alexa488 and Cy5. Each laser was coupled to the inverted microscope IX 73 (Olympus, Beijing, China) through a single-mode fiber, and was reflected by a dichroic mirror through a water-immersion objective (UPLSAPO 60×, N.A. 1.20). The protein sample was loaded onto a hybridization chamber (Thermo Fisher) glued to a glass coverslip (Thermo Fisher, Shanghai, China). The laser confocal point was set to about 50 μm above the coverslip. The excitation power at the back of the objective was about 100 μW for the 485 nm laser and about 35 μW for the 640 nm laser, as estimated with a power meter (PM20-FC; Thorlabs, Shanghai, China). Focused to a 100 μm pinhole, the fluorescence emission from the excited protein molecule was collected with the same objective. The donor and acceptor emissions were separated with a dichroic mirror (T635lpxr; Chroma, Xiamen, China). The donor emission was filtered with a 520/35 BP band pass, and the acceptor emission was filtered with a 690/70 BP band pass, before being focused onto the two SPCM-AQRH detectors.
(§3) The fluorescence outputs were recorded with a TimeHarp 260 PCI board (PicoQuant, Berlin, Germany) built into a PC workstation, and the data were stored in the time-tagged time-resolved module (PicoQuant, Berlin, Germany). The photon counts including fDex/Dem, fDex/Aem and fAex/Aem were obtained by binning the photons in 1 ms bins using SymPhoTime64 software (PicoQuant, Berlin, Germany). […] With all three fluorescence time traces recorded, the signals from the donor-only or acceptor-only protein molecules were filtered out, so as to ensure that an fDex/Aem photon only arises from a doubly labeled protein. […]

The test system of data set [2] is phAimR–target DNA interaction. Briefly: Electrophoretic mobility shift assay, phAimR binding to target DNA. The class given is biochemical, Bacillus phage phi3T. The note with it: 5 nM FAM-labelled 41 bp DNA; 0, 0.037, 0.11, 0.33 and 1 M (so in the source) phAimR, peptide 10-fold molar excess; 25 mM Tris-HCl pH 8.0, 150 mM NaCl, room temperature, 10 min; three biological replicates. On the procedure:
DNA probes were annealed using boiling water with FAM-labeled primers to generate the 41 bp DNA fragment (70262-70302, 5′ […] 3′) from phi3T bacteriophage genome. The labeled probes (5 nM) were incubated with 0, 0.037, 0.11, 0.33 and 1 M phAimR proteins or peptide-bound phAimR complex (peptide is 10-fold molar excess of phAimR) in a buffer containing 25 mM Tris-HCl (pH 8.0), 5 mM MgCl2, 5 mM DTT, 0.1 mg·mL^−1 BSA, 10% glycerol and 150 mM NaCl at room temperature for 10 min. The reactions were resolved on 6% native acrylamide gels (37.5:1 acrylamide:bis-acrylamide) in 0.5× TBE buffer at 100 V for 75 min. Images of the gels were obtained using FLA5100 (Typhoon, Shanghai, China).
Figure S 6. EMSA characterize the interaction between phAimR and target DNA. The phi 3T-derived SAIRGA peptide abolishes the DNA binding ability of phAimR, whereas the SP beta-derived GMPRGA peptide has no effects. Each EMSA experiments was conducted for three biological replicates.
F ig u re S 7. Comparison of cross-correlation function GAD(τ) between apo phAimR ( b l a c k line), in complex with 500 nM SAIRGA peptide (blue line) and 8000 nM target DNA (red line). FCS data was collected forthe N103C dyes -labeled phAimR dimer. […]
(A gel shift assay detects complexes by their altered migration in electrophoresis.)

In another data set the target is spAimR. The settings on record: cited from earlier work.
Data set [3] addresses T2, phAimR dimer (N103C-labelled) (Bacillus phage phi3T, UniProt P0DOE3, C136S/C223S/C267S/C6S/C74S/C99S/N103C).
T2 construct: 6xHis (N, cleaved yes); made in house; host or cells: Escherichia coli BL21 (DE3)
Briefly: smFRET titration of phAimR dimer labelled at N103C (Alexa488/Cy5). Type of data set: binding. The note with it: titration of SAIRGA (20-500 nM) or target DNA (500-8000 nM), GMPRGA at 500 nM. On the procedure:
as §1, §2, §3

The target of a further data set is T3, phAimR N103C-labeled (Bacillus phage phi3T, UniProt P0DOE3 1-378, C6S;C74S;C99S;C136S;C223S;C267S;N103C).
T3 sequence: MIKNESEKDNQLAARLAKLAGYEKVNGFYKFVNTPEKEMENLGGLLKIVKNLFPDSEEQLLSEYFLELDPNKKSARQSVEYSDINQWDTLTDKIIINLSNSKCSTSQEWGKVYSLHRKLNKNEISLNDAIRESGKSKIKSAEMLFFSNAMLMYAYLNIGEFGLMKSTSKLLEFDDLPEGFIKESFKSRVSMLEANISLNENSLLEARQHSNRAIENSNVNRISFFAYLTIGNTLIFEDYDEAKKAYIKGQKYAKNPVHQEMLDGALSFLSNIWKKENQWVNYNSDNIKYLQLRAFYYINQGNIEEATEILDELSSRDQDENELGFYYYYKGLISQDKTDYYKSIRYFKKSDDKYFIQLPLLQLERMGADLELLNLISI
The data set is described as follows: smFRET titration; no peptide; EMSA: 25 mM Tris-HCl pH 8.0, 150 mM NaCl, 5 mM MgCl2, 5 mM DTT, 0.1 mg/mL BSA, 10% glycerol, room temperature 10 min, 5 nM probe, protein 0-1 (printed 'M', probably uM); smFRET titration buffer not in the material. The note with it: protein: recombinant; tags: N-terminal 6xHis removed with drICE protease; Alexa488/Cy5 maleimide at C103; chain copies: 2; blunt.

A further data set concerns the target T4, phAimR D174C-labeled (Bacillus phage phi3T, UniProt P0DOE3 1-378, C6S;C74S;C99S;C136S;C223S;C267S;D174C).
T4 sequence: T3 sequence with C103N, D174C
Described as above. The note with it: protein: recombinant; tags: N-terminal 6xHis removed with drICE protease; Alexa488/Cy5 at C174; chain copies: 2; blunt.

A further data set deals with T5, phAimR wild type (Bacillus phage phi3T, UniProt P0DOE3 1-378).
T5 sequence: T3 sequence with S6C, S74C, S99C, C103N, S136C, S223C, S267C
The data set is described as follows: EMSA; no peptide; 5 mM MgCl2; EMSA: 25 mM Tris-HCl pH 8.0, 150 mM NaCl, 5 mM MgCl2, 5 mM DTT, 0.1 mg/mL BSA, 10% glycerol, room temperature 10 min, 5 nM probe, protein 0-1 (printed 'M', probably uM); smFRET titration buffer not in the material. The settings on record: protein: recombinant; tags: N-terminal 6xHis removed with drICE protease; chain copies: 2; label: FAM; blunt.

Data set [4] concerns the molecule itself. Briefly: SEC-MALS; static light scattering; 1.6 mg/mL protein without peptide; Superdex 200 Increase 10/300 with HELEOS multi-angle light scattering; 25 mM Tris-HCl pH 8.0, 300 mM NaCl. On the technique in general: In gel filtration, larger molecules generally elute earlier.
Data set [5] concerns the molecule itself. Briefly: SEC; Superdex 200 Increase 10/300 GL; 8.2 uM protein without peptide; 25 mM Tris-HCl pH 8.0, 300 mM NaCl.

Residue numbers refer to the chain shown, from its start.

T1 sequence (P0DOE3 whole entry C6S/C74S/C99S/C136S/D174C/C223S/C267S): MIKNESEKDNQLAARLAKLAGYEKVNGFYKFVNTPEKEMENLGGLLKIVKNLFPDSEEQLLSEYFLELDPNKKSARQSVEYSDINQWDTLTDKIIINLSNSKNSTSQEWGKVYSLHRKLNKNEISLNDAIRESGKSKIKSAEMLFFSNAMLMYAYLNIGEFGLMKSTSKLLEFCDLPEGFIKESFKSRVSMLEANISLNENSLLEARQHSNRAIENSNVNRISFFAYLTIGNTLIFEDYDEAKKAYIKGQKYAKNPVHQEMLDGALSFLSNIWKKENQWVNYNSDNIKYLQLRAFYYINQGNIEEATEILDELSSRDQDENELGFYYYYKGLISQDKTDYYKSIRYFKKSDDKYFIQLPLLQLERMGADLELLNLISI

As usually defined, the Kd is the equilibrium constant for the complex coming apart. For the molecule “GMPRGA [SPbeta arbitrium peptide (GMPRGA), negative control, reference compound]”, the “effect on smFRET profile / conformational state enriched” value in data set [1] and in data set [3] was “no perturbation on the smFRET profile of phAimR” throughout. The “effect on DNA binding ability of phAimR (EMSA)” value in data set [2] is “no effects”. Further, the Kd on spAimR was 4.6 nM.

B1: phi3T target DNA (smFRET titration) (dsDNA)
DNA 1: GAAATGTCCAGAAATTCAAAAATCAAAAAATAAGAACATGG
DNA 2: CCATGTTCTTATTTTTTGATTTTTGAATTTCTGGACATTTC
For the molecule B1, the Kd in the data set with phAimR N103C-labeled was 1650 ± 44.6 nM; with phAimR D174C-labeled it was 1260 ± 218 nM.

B2: phi3T target DNA 41 bp, FAM probe (dsDNA)
DNA 1: B1 DNA 1
DNA 2: B1 DNA 2
As for B2, the binding result with phAimR wild type was “binds”.

B3: AimR from Phi3T phage (phAimR), wild type (natural protein, Bacillus phage phi3T)
chain: T3 sequence with S6C, S74C, S99C, C103N, S136C, S223C, S267C
notes: AimR transcription factor of Bacillus phage phi3T, codon-optimized cDNA (GenBank KY030782.1) in pET15b; theoretical mass printed as 44.3 kDa; 6x His tag removed with drICE protease; Dimer by SLS, AUC and SAXS; also called phi3T AimR; wild-type phAimR; source: E. coli BL21 (DE3), purified (Ni-NTA, anion exchange, size-exclusion chromatography); not shown: His6, N-terminal, cleaved
In general, stoichiometry N refers to the number of molecules, sites or subunits per partner or assembly. B3: the entries for the “stoichiometry N” value in [4] and in data set [5] were about 2 and 2, respectively.

These data come from article PMC8464984, “AimR Adopts Preexisting Dimer Conformations for Specific Target Recognition in Lysis-Lysogeny Decisions of Bacillus Phage phi3T” (Biomolecules, 2021).
